Data on four molecules can be found in PMC5435084 (Molecular Biology and Evolution, 2017).

Like-named read-outs stand apart in the source and are kept apart here.

B1: SRGAP2A F-BARx-RhoGAP-SH3 (residues 1-799) (domain or fragment)
chain: not shown

Series [1] deals with the molecule itself. Nature of the series: SEC. On the technique in general: SEC sorts molecules by how far they enter the pores of the column.
In series [2] the target is SRGAP2A RhoGAP-SH3 domains (isolated) (human, UniProt O75044 485-1071). Briefly: MST.
Series [3] deals with the molecule itself. Briefly: SEC. This is another data set of the same source.
Series [4] addresses B1. Nature of the series: SEC-MALS.

With B1, in “SEC [1]”, the “stoichiometry N” value stood at 2.

B2: SRGAP2A F-BARx (extended F-BAR, residues 1-484) (domain or fragment, human, UniProt O75044 1-484, looked up)
chain: MTSPAKFKKDKEIIAEYDTQVKEIRAQLTEQMKCLDQQCELRVQLLQDLQDFFRKKAEIEMDYSRNLEKLAERFLAKTRSTKDQQFKKDQNVLSPVNCWNLLLNQVKRESRDHTTLSDIYLNNIIPRFVQVSEDSGRLFKKSKEVGQQLQDDLMKVLNELYSVMKTYHMYNADSISAQSKLKEAEKQEEKQIGKSVKQEDRQTPRSPDSTANVRIEEKHVRRSSVKKIEKMKEKRQAKYTENKLKAIKARNEYLLALEATNASVFKYYIHDLSDLIDQCCDLGYHASLNRALRTFLSAELNLEQSKHEGLDAIENAVENLDATSDKQRLMEMYNNVFCPPMKFEFQPHMGDMASQLCAQQPVQSELVQRCQQLQSRLSTLKIENEEVKKTMEATLQTIQDIVTVEDFDVSDCFQYSNSMESVKSTVSETFMSKPSIAKRRANQQETEQFYFTKMKEYLEGRNLITKLQAKHDLLQKTLGESQRT
modifications: fluorescently labeled (in the MST only)
Consider B2, for which the affinity in series [2], expressed as Kd, was 3.5 µM.

B3: SRGAP2C F-BAR portion (F-BARC, SRGAP2C residues 1-355) (domain or fragment, human, UniProt P0DJJ0 1-355, looked up)
chain: MTSPAKFKKDKEIIAEYDTQVKEIRAQLTEQMKCLDQQCELRVQLLQDLQDFFRKKAEIEMDYSRNLEKLAEHFLAKTRSTKDQQFKKDQNVLSPVNCWNLLLNQVKWESRDHTTLSDIYLNNIIPRFVQVSEDSGRLFKKSKEVGQQLQDDLMKVLNELYSVMKTYHMYNADSISAQSKLKEAEKQEEKQIGKSVKQEDRQTPCSPDSTANVRIEEKHVRRSSVKKIEKMKEKHQAKYTENKLKAIKAQNEYLLALEATNASVFKYYIHDLSDLIDQCCDLGYHASLNRALRTFLSAELNLEQSKHEGLDAIENAVENLDATSDKQRLMEMYNNVFCPPMKFEFQPHMGDMASQ
Turning to B3, the “stoichiometry N” value in the series “SEC [3]” was found to be 2. For the same molecule, the binding result in series [4] is recorded as “binds”.

B4: SRGAP2A F-BAR domain (F-BARA, residues 1-355) (domain or fragment, human, UniProt O75044 1-355, looked up)
chain: MTSPAKFKKDKEIIAEYDTQVKEIRAQLTEQMKCLDQQCELRVQLLQDLQDFFRKKAEIEMDYSRNLEKLAERFLAKTRSTKDQQFKKDQNVLSPVNCWNLLLNQVKRESRDHTTLSDIYLNNIIPRFVQVSEDSGRLFKKSKEVGQQLQDDLMKVLNELYSVMKTYHMYNADSISAQSKLKEAEKQEEKQIGKSVKQEDRQTPRSPDSTANVRIEEKHVRRSSVKKIEKMKEKRQAKYTENKLKAIKARNEYLLALEATNASVFKYYIHDLSDLIDQCCDLGYHASLNRALRTFLSAELNLEQSKHEGLDAIENAVENLDATSDKQRLMEMYNNVFCPPMKFEFQPHMGDMASQ
modifications: fluorescently labeled (in the MST only)
B4: the “stoichiometry N” value in the series “SEC [3]” was 2. Besides, binding in series [2] was characterised by a dissociation constant (Kd) of 3 µM.

What is called stoichiometry N is the number of molecules, sites or subunits per partner or assembly. As usually defined, the Kd is the free concentration of one partner at which half of the binding sites on the other are occupied at equilibrium, for simple one-to-one binding. Higher therefore signals weaker binding.
